From patent publication US20210269533A1 (SAMSUNG ELECTRONICS, published 2021)

Tests used:
[1] = target: c-Met on cancer cells (MKN45 gastric cancer cells; NCI-H441 lung cancer cells) (human, UniProt P08581 25-1390); assay: cell-based or functional assay
human c-Met protein [2] = target: T1, human c-Met protein (human, UniProt P08581 25-932, limits assumed); assay: SPR (Biacore), antibody immobilized on CM5 chip, human c-Met protein injected at 0.39-100 nM
T1 construct: also called c-Met antigen
T1 sequence (P08581 25-932 limits assumed): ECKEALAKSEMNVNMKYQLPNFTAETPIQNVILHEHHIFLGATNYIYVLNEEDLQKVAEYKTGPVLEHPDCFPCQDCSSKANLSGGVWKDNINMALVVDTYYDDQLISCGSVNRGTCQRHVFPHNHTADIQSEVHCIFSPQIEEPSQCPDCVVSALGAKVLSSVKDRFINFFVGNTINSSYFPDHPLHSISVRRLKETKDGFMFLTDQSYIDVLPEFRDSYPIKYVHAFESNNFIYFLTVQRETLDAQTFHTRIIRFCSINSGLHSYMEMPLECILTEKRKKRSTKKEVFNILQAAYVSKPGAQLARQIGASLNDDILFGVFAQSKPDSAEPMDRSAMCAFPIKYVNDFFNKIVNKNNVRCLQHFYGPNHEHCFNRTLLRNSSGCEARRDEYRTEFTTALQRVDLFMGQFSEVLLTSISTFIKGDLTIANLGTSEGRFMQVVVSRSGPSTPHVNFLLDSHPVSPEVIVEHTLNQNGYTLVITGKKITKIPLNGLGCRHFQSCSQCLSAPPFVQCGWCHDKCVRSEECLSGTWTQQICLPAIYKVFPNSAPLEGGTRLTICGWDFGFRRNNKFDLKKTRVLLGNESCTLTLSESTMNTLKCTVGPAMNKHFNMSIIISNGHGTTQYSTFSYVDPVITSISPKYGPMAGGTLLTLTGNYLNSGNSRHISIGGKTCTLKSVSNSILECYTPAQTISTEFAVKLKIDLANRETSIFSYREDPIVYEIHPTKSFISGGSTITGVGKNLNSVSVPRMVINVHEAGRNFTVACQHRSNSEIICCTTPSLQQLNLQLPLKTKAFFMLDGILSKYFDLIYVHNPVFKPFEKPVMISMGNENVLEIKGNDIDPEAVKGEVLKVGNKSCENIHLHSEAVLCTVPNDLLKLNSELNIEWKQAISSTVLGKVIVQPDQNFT
Procedure: (§1) Affinities of the 4 types of antibodies against c-Met antigen prepared in Example 7 were measured by using a Biacore (GE healthcare). About 80 to 110 RU of each antibody was immobilized on a CM5 chip, 9 different concentrations ranging from 0.39 nM to 100 nM of human c-Met protein, as an antigen, were injected at a rate of 30 ul/min to obtain kₒₙ values and koff values as shown in Table 3. Then, KD values were calculated based thereon.

human c-Met protein [3] = target: T1, human c-Met protein; assay: SPR (Biacore), ratio of KD values of Table 3
Procedure: as §1

Sequence of c-Met on cancer cells (MKN45 gastric cancer cells; NCI-H441 lung cancer cells) (P08581 25-1390): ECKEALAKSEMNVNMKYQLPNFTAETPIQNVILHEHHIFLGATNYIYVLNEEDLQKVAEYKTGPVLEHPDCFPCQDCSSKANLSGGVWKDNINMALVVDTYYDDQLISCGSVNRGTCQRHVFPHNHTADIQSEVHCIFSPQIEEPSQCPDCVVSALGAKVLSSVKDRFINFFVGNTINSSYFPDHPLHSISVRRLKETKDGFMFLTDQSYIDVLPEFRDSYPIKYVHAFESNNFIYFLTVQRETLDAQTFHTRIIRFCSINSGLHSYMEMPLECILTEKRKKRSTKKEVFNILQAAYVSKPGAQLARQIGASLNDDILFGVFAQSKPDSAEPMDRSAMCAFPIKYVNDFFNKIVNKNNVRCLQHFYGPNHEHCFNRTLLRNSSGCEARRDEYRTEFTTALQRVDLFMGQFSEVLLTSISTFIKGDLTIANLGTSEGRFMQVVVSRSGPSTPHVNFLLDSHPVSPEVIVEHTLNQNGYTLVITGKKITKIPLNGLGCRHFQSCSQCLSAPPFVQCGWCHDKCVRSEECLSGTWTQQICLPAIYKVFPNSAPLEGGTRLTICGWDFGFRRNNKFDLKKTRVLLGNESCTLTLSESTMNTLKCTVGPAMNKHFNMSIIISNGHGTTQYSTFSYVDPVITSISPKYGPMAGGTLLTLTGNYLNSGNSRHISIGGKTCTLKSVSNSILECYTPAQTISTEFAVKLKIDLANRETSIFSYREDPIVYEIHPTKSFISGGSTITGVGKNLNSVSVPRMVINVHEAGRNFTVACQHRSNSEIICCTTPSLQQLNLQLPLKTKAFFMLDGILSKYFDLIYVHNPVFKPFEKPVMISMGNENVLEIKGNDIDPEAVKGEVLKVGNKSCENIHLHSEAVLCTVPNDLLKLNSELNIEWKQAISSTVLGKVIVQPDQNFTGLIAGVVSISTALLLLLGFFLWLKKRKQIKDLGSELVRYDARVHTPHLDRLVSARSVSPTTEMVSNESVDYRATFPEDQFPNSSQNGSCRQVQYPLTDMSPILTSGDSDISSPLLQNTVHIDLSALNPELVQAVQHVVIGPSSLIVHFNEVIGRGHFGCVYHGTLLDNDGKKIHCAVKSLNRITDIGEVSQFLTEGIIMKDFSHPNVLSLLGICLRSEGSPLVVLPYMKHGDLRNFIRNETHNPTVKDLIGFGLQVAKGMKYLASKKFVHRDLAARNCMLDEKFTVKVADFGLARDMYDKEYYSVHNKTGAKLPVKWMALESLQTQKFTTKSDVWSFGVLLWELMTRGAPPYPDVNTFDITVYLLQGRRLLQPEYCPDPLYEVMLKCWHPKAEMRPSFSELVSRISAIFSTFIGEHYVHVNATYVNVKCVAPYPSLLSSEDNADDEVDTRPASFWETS

| Binder | degree of degradation of c-Met (total c-Met ELISA, MKN45 cells, 5 ug/ml, 24 h), increase compared to huAbF46 [1] | Kd (human c-Met protein [2]) | koff (human c-Met protein [2]) | kon (human c-Met protein [2]) | fold improvement of affinity (against huAbF46) (human c-Met protein [3]) | BrdU assay on NCI-H441 cells (agonism); safety improved by, at 10 ug/ml [1] |
| --- | --- | --- | --- | --- | --- | --- |
| huAbF46-H4-A5 (antibody, IgG1, V domains shown, IgG1 constant region with U6-HC7 hinge, human kappa light chain; also called IgG from clone L3-5) VH: EVQLVESGGGLVQPGGSLRLSCAASGFTFTDYYMSWVRQAPGKGLEWLGFIRNKANGYTTEYSASVKGRFTISRDNSKNTLYLQMNSLRAEDTAVYYCARDNWFAYWGQGTLVTVSS VL: DIQMTQSPSSLSASVGDRVTITCKSSQSLLASGNQNNYLAWHQQKPGKAPKMLIIWASTRVSGVPSRFSGSGSGTDFTLTISSLQPEDFATYYCQQSYSRPFTFGQGTKVEIKR | ~28% | 0.42 nM | 0.00024 s⁻¹ | 572000 M⁻¹ s⁻¹ |  | 21% |
| huAbF46-H4-A2 (antibody, IgG1, V domains shown, IgG1 constant region with U6-HC7 hinge, human kappa light chain; also called IgG from clone L3-2) VH: EVQLVESGGGLVQPGGSLRLSCAASGFTFTDYYMSWVRQAPGKGLEWLGFIRNKANGYTTEYSASVKGRFTISRDNSKNTLYLQMNSLRAEDTAVYYCARDNWFAYWGQGTLVTVSS VL: DIQMTQSPSSLSASVGDRVTITCKSSQSLLASGNQNNYLAWHQQKPGKAPKMLIIWASTRVSGVPSRFSGSGSGTDFTLTISSLQPEDFATYYCGQSYSRPLTFGQGTKVEIKR | ~28% | 0.5 nM | 0.000253 s⁻¹ | 502000 M⁻¹ s⁻¹ | 5 times | 28% |

Now from value to binder, other results behind:

| degree of degradation of c-Met (total c-Met ELISA, MKN45 cells, 5 ug/ml, 24 h), increase compared to huAbF46 [1] | Kd (human c-Met protein [2]) | koff (human c-Met protein [2]) | kon (human c-Met protein [2]) | fold improvement of affinity (against huAbF46) (human c-Met protein [3]) | Binder | BrdU assay on NCI-H441 cells (agonism); safety improved by, at 10 ug/ml [1] |
| --- | --- | --- | --- | --- | --- | --- |
| ~37% |  |  |  | 37 times | huAbF46-H4-A1 (antibody, V domains shown, also called IgG from clone L3-1) VH: EVQLVESGGGLVQPGGSLRLSCAASGFTFTDYYMSWVRQAPGKGLEWLGFIRNKANGYTTEYSASVKGRFTISRDNSKNTLYLQMNSLRAEDTAVYYCARDNWFAYWGQGTLVTVSS VL: DIQMTQSPSSLSASVGDRVTITCKSSQSLLASGNQNNYLAWHQQKPGKAPKMLIIWASTRVSGVPSRFSGSGSGTDFTLTISSLQPEDFATYYCQQSYSRPYTFGQGTKVEIKR | 25% |
| ~28% | 0.34 nM | 0.000143 s⁻¹ | 419000 M⁻¹ s⁻¹ |  | huAbF46-H4-A3 (antibody, IgG1, V domains shown, IgG1 constant region with U6-HC7 hinge, human kappa light chain; also called IgG from clone L3-3) VH: EVQLVESGGGLVQPGGSLRLSCAASGFTFTDYYMSWVRQAPGKGLEWLGFIRNKANGYTTEYSASVKGRFTISRDNSKNTLYLQMNSLRAEDTAVYYCARDNWFAYWGQGTLVTVSS VL: DIQMTQSPSSLSASVGDRVTITCKSSQSLLASGNQNNYLAWHQQKPGKAPKMLIIWASTRVSGVPSRFSGSGSGTDFTLTISSLQPEDFATYYCAQSYSHPFSFGQGTKVEIKR | 13% |
